Data taken from patent US20150283219A1 (INVECTYS, published 2015).
Values belong to the binder of their own block, whether it stands above or below them.

Columns and labels:
Assay in all cases: competitive ELISA, mean of three experiments
HLA-DR4 = HLA-DR4 (human)
HLA-DR7 = HLA-DR7 (human)
HLA-DRB5 = HLA-DRB5 (human)
HLA-DR1 = HLA-DR1 (human)
HLA-DRB3 = HLA-DRB3 (human)
HLA-DR15 = HLA-DR15 (human)
HLA-DRB4 = HLA-DRB4 (human)

- relative affinity (RA, IC50 of UCP / IC50 of reference peptide) (HLA-DR4): 34 ratio
- relative affinity (RA, IC50 of UCP / IC50 of reference peptide) (HLA-DR7): 8 ratio
- relative affinity (RA, IC50 of UCP / IC50 of reference peptide) (HLA-DRB5): 0.5 ratio
- relative affinity (RA, IC50 of UCP / IC50 of reference peptide) (HLA-DR1): 0.3 ratio
- relative affinity (RA, IC50 of UCP / IC50 of reference peptide) (HLA-DRB3): 154 ratio
- relative affinity (RA, IC50 of UCP / IC50 of reference peptide) (HLA-DR15): 3 ratio
B1: UCP4 (TERT1041-1055) (peptide)
peptide: SLCYSILKAKNAGMS
notes: Synthetic 15-mer (>80% purity, Activotec) derived from human TERT; also called UCP1041; p1041

- relative affinity (RA, IC50 of UCP / IC50 of reference peptide) (HLA-DR4): 112 ratio
- relative affinity (RA, IC50 of UCP / IC50 of reference peptide) (HLA-DRB4): 229 ratio
- relative affinity (RA, IC50 of UCP / IC50 of reference peptide) (HLA-DR7): 1 ratio
- relative affinity (RA, IC50 of UCP / IC50 of reference peptide) (HLA-DRB5): 1 ratio
- relative affinity (RA, IC50 of UCP / IC50 of reference peptide) (HLA-DR1): 0.2 ratio
- relative affinity (RA, IC50 of UCP / IC50 of reference peptide) (HLA-DRB3): 154 ratio
- relative affinity (RA, IC50 of UCP / IC50 of reference peptide) (HLA-DR15): 8 ratio
B2: UCP2 (TERT578-592) (peptide)
peptide: KSVWSKLQSIGIRQH
notes: Synthetic 15-mer (>80% purity, Activotec) derived from human TERT; also called UCP578; p578

- relative affinity (RA, IC50 of UCP / IC50 of reference peptide) (HLA-DR4): 50 ratio
- relative affinity (RA, IC50 of UCP / IC50 of reference peptide) (HLA-DRB4): 4 ratio
- relative affinity (RA, IC50 of UCP / IC50 of reference peptide) (HLA-DR7): 3 ratio
- relative affinity (RA, IC50 of UCP / IC50 of reference peptide) (HLA-DRB5): 1 ratio
- relative affinity (RA, IC50 of UCP / IC50 of reference peptide) (HLA-DR1): 3 ratio
- relative affinity (RA, IC50 of UCP / IC50 of reference peptide) (HLA-DRB3): 30 ratio
- relative affinity (RA, IC50 of UCP / IC50 of reference peptide) (HLA-DR15): 4 ratio
B3: UCP1 (TERT44-58) (peptide)
peptide: PAAFRALVAQCLVCV
notes: Synthetic 15-mer (>80% purity, Activotec) derived from human TERT; also called UCP44; p44
